We go through three molecules from US20240376227A1 (published 2024).

The target in one assay is T1, endogenous CK2α protein (UniProt P68400 1-391).
T1 construct: Native protein in cell lysates, chromatin fractions or fixed tissue sections of human origin; also called cellular endogenous CK2α protein; CK2α protein localized to the nucleolus
As to the kind of experiment: Western blotting after immunoprecipitation, MCF-7 and Flag-CK2α-expressing HEK293 cells. As for the experimental part: A lysate was prepared from a breast cancer cell line MCF-7 (JCRB cell bank, #JCRB0134) and Flag-CK2α protein-expressing HEK293 cells. The MCF-7 cell line or Flag-CK2α-protein-expressing HEK293 cells were cultured, and washed with PBS, and then collected from the plate. A soluble fraction was partially purified from the cell lysate in accordance with common methods, and the anti-CK2α antibody (1 μg of six antibodies of the present invention or the control antibody) was added. Then, mixing was performed mildly at 4° C. for two hours, and then, Protein G-agarose beads were added, and a CK2α immune complex was formed. Then, the immunoprecipitates obtained by centrifugation were treated with SDS, and then electrophoresed. In Western blotting, the antibody of the present invention or the control antibody was used at 0.1 μg/mL.
The Western blotting performed with the control antibody detected, in the MCF-7 cell line, a band of the endogenous CK2α and in addition, a nonspecific band equal to or stronger than the band, and also detected, in the Flag-CK2α protein-expressing HEK293 cells, bands of the endogenous CK2α and Flag-CK2α, and in addition, a nonspecific band equal to or stronger than the bands.
(A western blot detects proteins with antibodies after separation by electrophoresis.)

The target in assay [1] is T2, recombinant human CK2α protein (human, UniProt P68400 1-391).
T2 construct: also called recombinant CK2α protein; Casein kinase 2 alpha 1
T2 sequence (P68400 whole entry): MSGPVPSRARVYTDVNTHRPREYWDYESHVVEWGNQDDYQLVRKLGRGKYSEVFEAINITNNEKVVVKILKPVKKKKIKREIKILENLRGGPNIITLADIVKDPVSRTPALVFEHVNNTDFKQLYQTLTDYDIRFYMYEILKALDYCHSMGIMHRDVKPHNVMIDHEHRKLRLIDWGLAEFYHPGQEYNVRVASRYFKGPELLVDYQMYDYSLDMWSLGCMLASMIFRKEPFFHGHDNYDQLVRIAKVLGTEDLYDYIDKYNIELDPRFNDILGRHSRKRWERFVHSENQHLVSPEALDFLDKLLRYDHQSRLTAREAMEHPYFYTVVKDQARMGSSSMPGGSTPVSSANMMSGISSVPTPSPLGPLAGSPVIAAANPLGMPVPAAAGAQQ
As to the kind of experiment: Western blotting on 0.05, 0.1 or 0.2 µg purified recombinant protein, antibody at 0.1 µg/mL. As for the experimental part:
Using mAb (6A3), mAb (10B2), mAb (15C1), mAb (16C2), mAb (19C2), and mAb (21B1) of the present invention, a purified product of recombinant CK2α protein was detected by Western blotting. The recombinant CK2α protein obtained by purifying the human-derived CK2α protein expressed by introducing the pGEX2T-CK2α gene in E. coli was used. The recombinant CK2α protein in an amount of 0.05 μg, 0.1 μg, or 0.2 μg was treated with SDS, electrophoresed, and was subjected to detection with six antibodies of the present invention at 0.1 μg/mL.

T1 sequence (P68400 whole entry): as above

B1: mouse anti-CK2α monoclonal antibody clone 10B2, mAb (10B2) (antibody, mouse IgG2b, V domains shown)
VH: QVQLQQSGAELVRPGASVTLSCKASGYTFTDYQMHWVKQTPVHGLEWIGVIDPGTGGTAYNQKFKGKAILTADKSSNTAYMELRSLTSEDSAVYYCTGFVWGTGSPVTVSS
VL: DIQMTQSPSSLSASLGERVSLTCRASQDIGNNLNWLQQEPDGTIKRLIYATSSLDSGVPKRFTGSRSGSDYSLTISSLESEDFVDYYCLQYAIFPYTFGGGTKLEIKR
notes: As printed they appear to include a leader and the first constant region residues
As to B1, the binding result (in the assay with endogenous CK2α protein; in assay [1]) was “binds” throughout.

B2: mouse anti-CK2α monoclonal antibody clone 15C1, mAb (15C1) (antibody, mouse IgG2b, V domains shown)
VH: QVQLQQSGAELVRPGASVTLSCKASGYTFTDFQMHWVKQTPVHGLEWIGVIDPGTGGTAYNQKFKDKAILTADKSSNTAYMELRSLTSEDSAVYYCTGFVWGTGTTVTVSS
VL: DIQMTQSPSSLSASLGERVSLTCRASQDIGNNLNWLQQEPDGTIKRLIYATSSLDSGVPKRFTGSRSGSDYSLTISSLESEDFVDYYCLQYAIFPYTFGGGTKLEIKR
notes: as for B1
As to B2, the binding result (with endogenous CK2α protein; in assay [1]) was “binds” each time.

B3: mouse anti-CK2α monoclonal antibody clone 16C2, mAb (16C2) (antibody, mouse IgG2b, V domains shown)
VH: QVQLQQSGAELVRPGASVTLSCKASGYKFTDYQMHWVKQTPVHGLEWIGVLDPGTGGTAYNQKFRGKAILTADKSSSTAYMELRSLTSEDSAVYYCTGFVWGTGTTVTVSS
VL: DIQMTQSPSSLSASLGERVSLTCRASQDIGSSLNWLQQEPDGTIKRLIYATSSLDSGVPKRFSGSRSGSDYSLTISSLESEDFVDYYCLQYAIFPYTFGGGTKLEIKR
notes: as for B1
Take B3: the binding result (in the assay with endogenous CK2α protein; in assay [1]) was “binds” each time.
